Laboratory results as given in article PMC9426445 (mBio, 2022).

B1: GPC-B antibody 18.5C (IgG) (antibody, V domains shown)
VH: EVQLVQSGGGLVRPGGSLRLSCAAAGFTFKSYSMNWVRQAPGRGLEWVSSITSGGSKTYYADVVKGRFTVSRDNAKQSLYLQMNSLRAEDTAIYFCARSLHSTSQPSYMDVWGRKITVIVSS
VL: DIVLTQSPGTLSLSPGERATLSCRASQSVISYYVAWYQHKGGQAPRLLIYGASSRATGVPDRFSGSGSGTDFTLTISSLEPEDFALYYCQYYGSSPLWAFGQGTKVEIK
notes: copies: 2 + 2
B2: engineered GPC-B antibody 18.5C-M30 (IgG) (antibody, V domains shown)
VH: EVQLVQSGGGLVRPGGSLRLSCAAAGFTFKSYSMNWVRQAPGRGLEWVSSITSRGGSKTYYADVVKGRFTVSRDNAKQSLYLQMNSLRAEDTAIYFCARSRHSTSQPSYMDVWGRKITVIVSS
VL: B1 VL
notes: copies: 2 + 2
B3: GPC-A antibody 25.10C (IgG) (antibody, V domains shown)
VH: QVQLQESGGGLVKPGGSLRLSCTASGFNFNKYNMNWVRQAPGKGLEWVSSISALSTYIYYADSLKGRFTVSRDNAKNSLFLQMNSLRDDDTAVYYCAREIRRASTWSADLWGRGTLVTVSS
VL: DIQMTQSPSSLSASVGDRVIITCRASQSISSSLNWYQQKPGKAPKLLIYAAVNLETGVPSRFSGSGFGTDFTLAISNVQPEDFATYYCQQSDTRTFGRGTKLDVK
notes: copies: 2 + 2

The binders below were run against LIV-GP, soluble lineage IV LASV pfGP monomer (Lassa virus lineage IV, strain Josiah, stabilised) (assay: BLI; Octet Red384; […] (AHC) capture sensors at 2.5 ug/mL; […]; 1x kinetics buffer (PBS, 0.1% BSA, 0.02% Tween 20); 1:1 fit; […]). Settings: both partners purified.
For B1, the Kd was 0.091 nM, the koff was 7.8e-05 s⁻¹ and the kon was 858000 M⁻¹ s⁻¹. B2 gave a Kd of 0.047 nM, a koff of 3.67e-05 s⁻¹ and a kon of 780000 M⁻¹ s⁻¹. Binder B3 has a Kd of less than 0.001 nM, a koff of less than 1e-07 s⁻¹ and a kon of 150000 M⁻¹ s⁻¹.

What follows are binders tested against LI-LASV-pfGP soluble ectodomain monomer (lineage I Lassa virus prefusion glycoprotein) (Lassa virus lineage I, strain Pinneo, stabilised) in the same assay as above. Settings: both partners purified.
B1 was tested, and the Kd was 2.86 nM, the koff was 0.00235 s⁻¹ and the kon was 819000 M⁻¹ s⁻¹. B2 gave a Kd of 0.559 nM, a koff of 0.000423 s⁻¹ and a kon of 757000 M⁻¹ s⁻¹. With B3 the Kd was 3.52 nM, the koff was 0.000387 s⁻¹ and the kon was 110000 M⁻¹ s⁻¹.
